Measured values taken from the DeepSol protein solubility set.

Assay: soluble on expression in E. coli; label from the status in PepcDB or PDB records

| Sequence | soluble on expression in E. coli |
| --- | --- |
| MGSDKIHHHHHHMQVEQRTLNTAAHPFQITAYWLDQISDFETAVDYPIMIICPGGGFTYHSGREEAPIATRMMAAGMHTVVLNYQLIVGDQSVYPWALQQLGATIDWITTQASAHHVDCQRIILAGFSAGGHVVATYNGVATQPELRTRYHLDHYQGQHAAIILGYPVIDLTAGFPTTSAARNQITTDARLWAAQRLVTPASKPAFVWQTATDESVPPINSLKYVQAMLQHQVATAYHLFGSGIHGLALANHVTQKPGKDKYLNDQAAIWPQLALRWLQEQGLLAGNY | not soluble |
| MNEKHPGPLVVSGKLSDGERMKSESNFLRGTIAEDLNNGLTGGFSGDNFLLIRFHGMYQQDDRDIRAERAEQKLEPRHAMMLRCRLPGGIITPQQWLGIDKFAADNTLYGSIRITNRQTFQFHGILKGNVKPAHQLLNELGLDALATANDVNRNVLCTSNPVESALHQEAYEWAKKISEHLLPRTRAYAEIWLDAEKVATTDEEPILGATYLPRKFKTTVVIPPQNDVDLHANDLNFVAVADKGKLIGFNVLVGGGLSIAHGDKNTYPRKASEFGYIPLKHTLAIAEAVVTTQRDWGNRTDRKNAKTKYTLERVGVETFKAEVEKRAGVSFSAIKPYQFIGRGDRIGWVKGVDKKWHLTLFVENGRLLDYPGRSLKTGVAEIAKIHQGDFRLTANQNLIVAGVPEKDKARIEALAREHGLMDDNVTSQRENSMACVSFPTCPLAMAEAERFLPEFVTRVEGILQQHGLADEHIVLRVTGCPNGCGRALLAEVGLVGKAVGRYNLHLGGNREGTRIPRMYRENITADEILLITDQLVGRWAKERHVDEGFGDFVIRAGVIAPVIDSARDFYDVQEAM | not soluble |
| SEMIVDHRQKAFELLKVDAEKILKLIRVQMDNLTMPQCPLYEEVLDTQMFGLSREIDFAVRLGLVDEKDGKDLLYTLERELSALHDAFTAK | not soluble |
| MIEVGDLKKGMFIIYDGEIYRVLEASKHFMGRGSGLIRTKLKNVKTGFVREVNFPSGEKVQEAELSFRKAQYLYRDGDHYYFMTLDDYEQYALSEEEIGDAKYYLVENMEVDLVFHEGTPIGIELPTTVELTVVETEPSFKGDTVSGGGKPAVLETGLKITVPYFIEVGDKIKVDTRTGEYVGRA | soluble |
| MGSDKIHHHHHHMDRYPPFGFVRAVPIASSGNMTGESISNIATALVVGGGIGGMATAISLAERGVTVDLVDLDPEWRVYGAGITITGPTLRAYRRLGMLDEIKHKGAITSKTRLFRYDGTHMLDLDEPVIEEGLPATGGIMRPVLHHIMQKRVRELEIPVRLGLTVDALENVQGGVDVRFSDRTARRYDLVVGADSVFSRVRDLAFAHMGPAQPTGQGCWRISIRKPPGLDMGEFFLGHANPCGITACGPDTVYMWMLTPHVERDSHMDDEELFVTLKALLADFGGNAGWIRDNMTREDWINYRPLAAALQPRDWFNGRIVLVGDAVHATTPHLASGAGMAVESGIVLAEELARAGDVESALRAYQERRFDRCRDVIETSVAVGRLQLEHGDPQVHAKMLEGALGRLNQPF | not soluble |
| PERESVRHKQPKSKEKKNAEKHIPHGIKCFVHAPEKYEWRWMGDEYVHALTPNVLEMVECLKANGIRLHTAGITVGMQKGKDLVPAPALALSTEMDDHSFFDMEFSRDEALSYLARQSVTTMPDLPLGFVLATFRRRPLGFLKNLGTRANNLYPQDWRIRNLETSEDCMEAKD | not soluble |
| AKDAVLSVDGIIVARSSNEITDLIPGATLALSGKTTDPATLSVSRDTQLAEAAMTYMVEELNATMKLLGELTRRSTDGSGSGELAGDRVVETLKRQVTALIGQPLTGHGEKPVYLSQLGVSTNRDGSLSFNASAFQKAFEKTPQIFDAMFTDSLTAITPGASIAGKAASSAASGDYIFRLDPVTGEATVGGGATLALPGANGASQYLVLSGGLAGVMVSVESGVTDATLRFGRSFATQLQALLDTAAGQNGAISDREGQIGKVAEEQAKVIEALDARAAKLESRYLAQFTAMEQAVSRMKSTGTYLENLISAWNKD | not soluble |
| MGSDKIHHHHHHMRYSPESLLAFITTVDAGSFSAAARRLHKSQSTISAAIANLEADLGLTLFDRAGHQPVLTLAGRKVLSHVQAILSASEELDELAIRLADHIEPRLTFVLSDIWQATHYEPVIQRFAHNFPDIEFECLVAEGDDVIDLLQMDRAHVGLLRAQTDYPPDIAAARLQVKTEMAVFVSVAHPLATEKTVTRSQLATVRQLYLNTYKRSDRLQPEGIVWSAPSYLMLLEMAQQGHGWSSLPRWLVAQYDRQKLVELPVSGWPQWIDVDVVWSKPHPPGPAGLWMIDNLLAQQESTPP | not soluble |
| GPHMAVVDDLAPGMDSSPPSEDYGRQPPQDLAAEQSVLGGMLLSKDAIADVLERLRPGDFYRPAHQNVYDAILDLYGRGEPADAVTVAAELDRRGLLRRIGGAPYLHTLISTVPTAANAGYYASIVAEKALLRRLVEAGTRVVQYGYAGAEGADVAEVVDRAQAEIYDVADRRLSEDFVALEDLLQPTMDEIDAIASSGG | soluble |
| GAMDPDLEATLRAIVHSATSLVDARYGAMEVHDRQHRVLHFVYEGIDEETVRRIGHLPKGLGVIGLLIEDPKPLRLDDVSAHPASIGFPPYHPPMRTFLGVPVRVRDESFGTLYLTDKTNGQPFSDDDEVLVQALAAAAGIAVANARLYQQAK | soluble |
| MSLTRATKGFLSKSLPKASEATPGSQSSDYIPLVSLQLASGAFLLNEAFCTTIQIPMEKLKWTSPFSCLRMSLVTRRQDLKTQSPQDCTSLSSSPPSCDGISLKSEESSDQESNAMLEHMGKLWATVVALAWLEHSSANYIIEWELVAAKASSWVEKQKVPEGRTLSTLKNTARQLFVLLRHWDEKLEFNMLCYNPNYVEGHHHHHH | not soluble |
| MAHHHHHHMDPGAVMPGIVQMSKDNFDQLVGKEKAVLVEFYAPWCGHCKSMAPEYAALGAAYEASTNAKDLLLVGKVDATQDSDLGKRFGVTGFPTILYFAPGSLEPEKYKGGRTAEDFAKYLSSAIAGLRLTIPIEPQFAMELVHTNFDAVVKDPSKAVLVMFYAPWCGHCKALKPIYNTLAKVFSNDKDVVIARINADDAANRKIATEYAVAGFPTVYFFPKGADEKPVEYKNGRNLEDFLTFVNENAGKHRLANGDFSWECGVIAELAEAVALVATSSGESSKAAVEAVKAAAAKLAESEDAAYYIKAAERIAAKGPAYVESESARLKRTLGGSVAGDRRDNMVRRLNILTSIQKHMK | not soluble |
| METIIHKIRLFDVAQADAFEFWVQNVDYATCPDLPSVVRFDVHRASLQANAPYHYVEVIKITDRAAFDADMETSTFAGLVQAFSRMAEVVEELAGEQLGSGYAAG | soluble |
| VAFLCQLFGVYRSSYQAWHHRVKKPDTERIRLKSLVREAFNEGKGSAGARTIAAMVTAKGIPLGRWRAGKLMAELGLVSRQQPKHRYSHQEQEHLDIPNDLDRQFTVTEPNQVWCGDVTYIWTGKCWAYLAVVLDLFARKPIGWAMSFSADSELTKRALEMAFESRRKPQGVMFHRDQGSHYTRKAFRRLLWRYGIKQSLSRRGNCWDNSPMERFFRSLKSEWVPEEGYSDFRKAFRSITNYIQGEPRQSRDFPYVFITFLYPASIRRANGAGAG | soluble |
| SLKKKSLKLTALFLALSCFPAFAEQTVDIEVQGIRGFRAVRNTDLNVNLINKEEMDGSERYQHLVTKAVDRGLRVFGYYESSVRFERKQRQGKRDLLIAHVTPGEPTKIAGTDVQIEGEAAQDENFNALRKNLPKDGVLVEHQTYDDYKTAISRLALNRGYFDGNFKISRLEISPETHQAWWRMLFDSGVRYHYGNITFSHSQIRDDYLNNILNIKSGDPYLMNNLSDLTSDFPSSNWFSSVLVQPNVNHKSKTVDVEIILYPRKKNAMELGVGFSTDGGVHGQIGWTKPWINSRGHSLRSNLYLSAPKQTLEATYRMPLLKNPLNYYYDFAVGWEGEKENDTNTRVLTLSALRYWNNAHGWQYFGGLRMRYDSFTQADITDKTLLLYPTVGFTRTRLRGGSFATWGDVQKITFDLSKRIWLSESSFIKVQASSAWVRTYAENHRVVARAEIGYLHTKGIEKIPPTLRFFAGGDRSVRGYGYKKIAPKNRNGKLVGGSRLLTTSLEYQYQVYPNWWAATFADSGLAADNYTAKELRYGTGVGVRWASPVGAIKFDIATPIRDKDNSKNIQFYIGLGTEI | soluble |
| MLQCGAKNVNPLERFVSSLPVAAVLPELLAALDGASQVLLSAPTGAGKSTWLPLQLLAHPGINGKIILLEPRRLAARNVAQRLAELLNEKPGDTVGYRMRAQNCVGPNTRLEVITEGVLTRMIQRDPELSGVGLVILDEFHERSLQADLALALLLDVQQGLRDDLKLLIMSA | not soluble |
| MDRIPFGIRQLDSIINGGAPAGSVVLLSGEAGAGSREFMHTSALINGLEQVDTELHDLYYGDRSPDAVAPDEVHYISFTTNESQLVSEMRLAMDDDVVDKGSRAVEFHDLSERYFHISPVPREWYASETASITDLRARHEREDLLGTLGMVLNEVAANNLVVIDSLSDLVSAMGEEIEWSDISSLVQGLQKAAHQWGCLLLLHINPETLSTVRHGQLVDASHGTMEFAWESGGSTRARTLVVQQFRGVLSQIEDEDIVQFETELGDAGFDISDVRKIRLEHHHHHH | not soluble |
| MRGSVAALLLAAGRSIRMGRCKQLLPLGNTTVLGRCLDTLRRGGVGEIAVVVSADGEQVARAAAGHGVRVVVNPDREGDMASSVRAGRDAFGSAVGGVIVSLCDQPLVAAGTVARLRDRHATEPGRIIIPTHGGRRGHPLLFPLPVLAELEDGLTLRDLVVCDPARVCCVAVADPGILIDMDTPEDYRHVCRLMAPQEGLSLRLEHHHHHH | not soluble |
| LEYSDSIDLLNMDLYDLMKLADRLTHYDAGETVSYAISYNINYTNYCTASCPICAFYVPYKNKRFGKGYELTKEQVRKEALIAKQKGATEIHIVGGFDPDLSIEYYEDIFRTIRGIMPNVAIKAFTIPEIDFIARTTGNSIKETVLRFMDAGMNAHTGGGAEIFDQEIRKYITTPEKVSGEKWLEDAKIIHSLGLKGNSTMTYGHIEGWEHIIDHMIRLRDNQIEVPGFLSFIPLKFSPENTALLRSGRVHGPAPVDKDLKVIALARIIMGRAIRNISVYWVAIGKLTAQIAINGGGNDLVGTAYSEKVFGATDRKTSTTTEELNNMIRQAGKIPGVR | not soluble |
| EIGYYEWAIENDEMHCNSLYKKIFGFSDAHDPTYKEFTSQIFPKDLSVRNNAVQRAILVGGVYNAEYRVRHPNDELRWVKSFGKAIYDEKGKPVKLIGMILD | not soluble |
| MGLSNRAIIIDGKNHLLGRLASIVAKKLLQGDKVVVLRAEEIVISGNFHRSKLKYMSFLRKRCNINPARGAFHYRAPGKIFWRTVRGMLPHKTNRGNEALKNLRAYEGVPAKYQKTKSLHAPSASRFRLQPRRKFCVVGRLSHEVGWQFQDVVAKLEAKRKVKGAAYFEQKKKMDKLAVQAKKNAAPKIAQYQKIIEALGYN | not soluble |
| MKVAGVDEAGRGPVIGPLVIGVAVIDEKNIERLRDIGVKDSKQLTPGQREKLFSKLIDILDDYYVLLVTPKEIDERHHSMNELEAEKFVVALNSLRIKPQKIYVDSADVDPKRFASLIKAGLKYEATVIAEHKADAKYEIVSAASIIAKVTRDREIEKLKQKYGEFGSGYPSDPRTKEWLEEYYKQYGDFPPIVRRTWETARKIEERFRKNQLTLDKFLK | soluble |
